Reference: PMC8210318, “The HelQ human DNA repair helicase utilizes a PWI-like domain for DNA loading through interaction with RPA, triggering DNA unwinding by the HelQ helicase core” (NAR Cancer, 2021)

Experiments:
[1] = target: the molecule itself; experiment: SEC; analytical gel filtration of C-HelQ in ATP-Mg2+ and ssDNA, Superdex-200, against mass standards
[2] = target: the molecule itself; experiment: SEC-MALS; HelQ with ATP-Mg2+: pre-incubated in 5 mM MgCl2 and 5 mM ATP at 37°C for 10 min, running buffer with 0.2 mM ATP and 0.2 mM MgCl2, Superdex-200
[3] = target: the molecule itself; experiment: SEC-MALS; HelQ apoenzyme, 200 ul of 2.4 uM monomer, Superdex-200, 50 mM Tris-HCl pH 8.0, 150 mM NaCl, 10% glycerol, pre-incubated 10 min at 37°C; no ATP-Mg2+

Row | Protein | stoichiometry N [1] | stoichiometry N [2] | stoichiometry N [3]
1 | C-HelQ, HelQ 'core' helicase (826 amino acids) (domain or fragment, human, UniProt Q8TDG4 275-1101, looked up, human HelQ helicase core: the 826 amino acids that match Hel308; excludes the 274 amino acid N-terminal region; 85 kDa; The start at 275 follows from the excluded 274 residue N-terminal region; also called core HelQ helicase; source: Escherichia coli, purified (as described for HelQ)) GNAKAQTPIFSRSKQLKDTLLSEEINVAKKTVESSSNDLGPFYSLPSKVRDLYAQFKGIEKLYEWQHTCLTLNSVQERKNLIYSLPTSGGKTLVAEILMLQELLCCRKDVLMILPYVAIVQEKISGLSSFGIELGFFVEEYAGSKGRFPPTKRREKKSLYIATIEKGHSLVNSLIETGRIDSLGLVVVDELHMIGEGSRGATLEMTLAKILYTSKTTQIIGMSATLNNVEDLQKFLQAEYYTSQFRPVELKEYLKINDTIYEVDSKAENGMTFSRLLNYKYSDTLKKMDPDHLVALVTEVIPNYSCLVFCPSKKNCENVAEMICKFLSKEYLKHKEKEKCEVIKNLKNIGNGNLCPVLKRTIPFGVAYHHSGLTSDERKLLEEAYSTGVLCLFTCTSTLAAGVNLPARRVILRAPYVAKEFLKRNQYKQMIGRAGRAGIDTIGESILILQEKDKQQVLELITKPLENCYSHLVQEFTKGIQTLFLSLIGLKIATNLDDIYHFMNGTFFGVQQKVLLKEKSLWEITVESLRYLTEKGLLQKDTIYKSEEEVQYNFHITKLGRASFKGTIDLAYCDILYRDLKKGLEGLVLESLLHLIYLTTPYDLVSQCNPDWMIYFRQFSQLSPAEQNVAAILGVSESFIGKKASGQAIGKKVDKNVVNRLYLSFVLYTLLKETNIWTVSEKFNMPRGYIQNLLTGTASFSSCVLHFCEELEEFWVYRALLVELTKKLTYCVKAELIPLMEVTGVLEGRAKQLYSAGYKSLMHLANANPEVLVRTIDHLSRRQAKQIVSSAKMLLHEKAEALQEEVEELLRLPSDFPGAVASSTDKA | 2 |  | 
2 | HelQ helicase, full length, human (enzyme, UniProt Q8TDG4 1-1101, looked up, human HelQ DNA repair helicase, full length; Tetramer as apoenzyme and dimer with ATP-Mg2+ by SEC-MALS; also called HelQ apoenzyme; His-SUMO-SF-tagged HelQ; source: SF9 insect cells (Bac-to-Bac baculovirus), purified (ammonium sulphate, Ni-NTA, heparin, Q-sepharose); not shown: His6, N-terminal, kept; SUMO, N-terminal, kept; StrepII-Flag, N-terminal, kept) MDECGSRIRRRVSLPKRNRPSLGCIFGAPTAAELVPGDEGKEEEEMVAENRRRKTAGVLPVEVQPLLLSDSPECLVLGGGDTNPDLLRHMPTDRGVGDQPNDSEVDMFGDYDSFTENSFIAQVDDLEQKYMQLPEHKKHATDFATENLCSESIKNKLSITTIGNLTELQTDKHTENQSGYEGVTIEPGADLLYDVPSSQAIYFENLQNSSNDLGDHSMKERDWKSSSHNTVNEELPHNCIEQPQQNDESSSKVRTSSDMNRRKSIKDHLKNAMTGNAKAQTPIFSRSKQLKDTLLSEEINVAKKTVESSSNDLGPFYSLPSKVRDLYAQFKGIEKLYEWQHTCLTLNSVQERKNLIYSLPTSGGKTLVAEILMLQELLCCRKDVLMILPYVAIVQEKISGLSSFGIELGFFVEEYAGSKGRFPPTKRREKKSLYIATIEKGHSLVNSLIETGRIDSLGLVVVDELHMIGEGSRGATLEMTLAKILYTSKTTQIIGMSATLNNVEDLQKFLQAEYYTSQFRPVELKEYLKINDTIYEVDSKAENGMTFSRLLNYKYSDTLKKMDPDHLVALVTEVIPNYSCLVFCPSKKNCENVAEMICKFLSKEYLKHKEKEKCEVIKNLKNIGNGNLCPVLKRTIPFGVAYHHSGLTSDERKLLEEAYSTGVLCLFTCTSTLAAGVNLPARRVILRAPYVAKEFLKRNQYKQMIGRAGRAGIDTIGESILILQEKDKQQVLELITKPLENCYSHLVQEFTKGIQTLFLSLIGLKIATNLDDIYHFMNGTFFGVQQKVLLKEKSLWEITVESLRYLTEKGLLQKDTIYKSEEEVQYNFHITKLGRASFKGTIDLAYCDILYRDLKKGLEGLVLESLLHLIYLTTPYDLVSQCNPDWMIYFRQFSQLSPAEQNVAAILGVSESFIGKKASGQAIGKKVDKNVVNRLYLSFVLYTLLKETNIWTVSEKFNMPRGYIQNLLTGTASFSSCVLHFCEELEEFWVYRALLVELTKKLTYCVKAELIPLMEVTGVLEGRAKQLYSAGYKSLMHLANANPEVLVRTIDHLSRRQAKQIVSSAKMLLHEKAEALQEEVEELLRLPSDFPGAVASSTDKA |  | 2 | 4
